Test results: patent publication US20100041597A1, “PEPTIDES TARGETED TO PROTEIN KINASE C ISOFORMS AND USES THEREOF” (priority 2005, published 2010)

target: PKC-βII (Homo sapiens, UniProt P05771); experiment: ELISA-based competitive binding assay with purified PKC isoform; parameters: key to Affinity for PKC isoform βII: —: no detectable affinity; Low to very low affinity at 10X or 20X or both PRE concentrations in at least one cell line in the cell extract assay; Low affinity in purified isoform assay.; Moderate affinity at 10X or 20X or both PRE concentrations in at least one cell line in the cell extract assay.; High affinity at 10X or 20X or both PRE concentrations in at least one cell line in the cell extract assay; High affinity in purified isoform assay; conditions: PRE 50 μM; purified PKC-βII
Sequence (P05771 1-673 isoform P05771-2): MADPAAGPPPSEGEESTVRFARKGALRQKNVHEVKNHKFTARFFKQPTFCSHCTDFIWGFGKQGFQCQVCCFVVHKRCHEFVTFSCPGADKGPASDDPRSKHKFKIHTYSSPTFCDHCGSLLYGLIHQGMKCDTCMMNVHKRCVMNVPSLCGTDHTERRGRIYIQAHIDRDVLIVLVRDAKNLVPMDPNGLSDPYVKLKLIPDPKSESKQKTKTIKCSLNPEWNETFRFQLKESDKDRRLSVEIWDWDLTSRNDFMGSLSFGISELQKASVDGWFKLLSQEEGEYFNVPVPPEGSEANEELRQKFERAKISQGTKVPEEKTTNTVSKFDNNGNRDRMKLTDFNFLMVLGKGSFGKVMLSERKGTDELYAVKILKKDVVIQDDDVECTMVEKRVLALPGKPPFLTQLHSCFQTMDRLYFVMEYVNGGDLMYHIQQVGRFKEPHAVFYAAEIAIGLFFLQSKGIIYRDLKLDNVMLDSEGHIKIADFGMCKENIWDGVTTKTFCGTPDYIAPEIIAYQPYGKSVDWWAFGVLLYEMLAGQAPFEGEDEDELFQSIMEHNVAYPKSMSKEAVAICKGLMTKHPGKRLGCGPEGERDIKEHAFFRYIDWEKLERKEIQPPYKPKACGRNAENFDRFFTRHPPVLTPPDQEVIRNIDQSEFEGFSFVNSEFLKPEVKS
Experimental: Peptides PRE 1, 2, 3, 4, 5, 6, 7, 8, 9, 10, 11, 12 and 13 (see Table 3) were tested for their ability to interfere with binding of PKC isoform-specific antibodies to their target PKC isoforms using a competitive binding assay and purified PKC isoforms.
Procedure: Competitive binding was assessed using a 96 well plate ELISA-based assay as described below.
Greiner 96 well ELISA plates were coated with the appropriate PKC isoform diluted in PBSN (PBS with Calcium/Magnesium+0.05% Sodium azide w/w). 50 μL/well at 250 ng/mL was used. Control wells contained PBSN only. Plates were incubated overnight at 4° C.
The plates were washed 3 times with 200 μL of dH2O per well, then 100 μL of blocking solution was added per well and the plate incubated for 1 h at 37° C. The washing steps with dH2O were repeated and 50 μL of the appropriate PRE solution (PRE stock solution [20 mM in DMSO] diluted in PBSN) was added and the plate incubated for 1 h at room temperature.
After incubation, 5 μL of 1.1:400 anti-PKC (isoform specific antibody) was added per well (to provide a final concentration of 1:4000). For PKC-epsilon, 1.1:800 dilution was used and for PKC-zeta a 1.1:100 dilution was used due to high and low binding affinity, respectively. The plates were then incubated 1 h at room temperature, followed by washing with dH2O as described above.
50 μL of 1:1000 dilution of Alkaline Phosphatase (AP) conjugated antibody (anti-rabbit for all except zeta, which was anti-goat) was then added and the plate incubated for 1 h at room temperature. Washing with dH2O was then repeated. Finally, 100 μL of pNPP solution in pNPP buffer (2 mM MgCl2, 100 mM Sodium bicarbonate in water, pH 9.8) was added to all wells and incubated for 8 minutes for α, βI, βII ε, and ζ, or for 15-20 mins for […] (until sufficient coloration is observed). The reaction was stopped by addition of Stop solution (2N NaOH) and the absorbance at 405 nm was read on a Galaxy Plate reader.
Controls were PKC without PRE; blank controls, and controls containing the final concentrations of DMSO used for solubilizing the PREs. The non-specific binding capacity related to DMSO was also measured.
The antibodies used were as follows: anti-PKC α (Cat. No. SC-208); anti-PKC βI (Cat. No. SC-209); anti-PKC βII (Cat. No. SC-210); anti-PKC δ (Cat. No. SC-213); anti-PKC ε (Cat. No. SC-214); anti-PKC ζ (Cat. No. SC-216-G) (all from Santa Cruz Biotechnology, Inc.). The AP-conjugated antibodies were obtained from Jackson Immuno Research Laboratories (West Grove, Pa.).
Calculations: The OD values measured at 405 nm represent the free PKC coated per well.
OD405 PKC alone−Blank OD405 of each sample=OD405 coated isoform
(OD405 of sample X/OD405 coated isoform)×100=% n that represents the percentage of X binding compared to control.
100-% n measures the relative binding capacity of X towards the tested isoform.
The apparent binding capacity of the DMSO samples was then subtracted from X binding capacity.
All measurements were made in triplicate and the values in the table represent the averaged calculated binding capacity values after subtraction of the DMSO apparent binding capacity (averaged from 12 values, respectively 10.80, 11.20 and 16.40 corresponding to the concentrations of DMSO used to dilute the […] at 200, 100 and 50 μM respectively). The results allow for quantitative comparison of the binding capacity of each PRE towards an individual isoform within each table, but not among isoforms due to differences in sensitivity of the specific antibodies toward the secondary antibody. This applies particularly to PKC-delta. As noted above, the colour development duration was increased 2-3 times and, as a result, the OD405 measurements may be overestimated for this isoform.

| Substance | calculated binding capacity (100-% n) after subtraction of the DMSO apparent binding capacity |
| --- | --- |
| Ac-isigilgnadk-NH2 [PRE 9] | 8.14 |
| Ac-ISIGILQNADK-NH2 [PRE 7] | 5.42 |
| ILEDKGGDAQNLIGISI [PRE 8] | 1.11 |
| Ac-RDAQNLIGISI-NH2 [PRE 11] | 7.14 |
| Ac-KDAQNLI-NH2 [PRE 12] | 4.55 |

same assay, conditions: PRE 50 μM; purified PKC-βII; read-out: calculated binding capacity (100-% n) after subtraction of the DMSO apparent binding capacity

| Substance | inhibition at 50 µM [%] |
| --- | --- |
| Ac-KDAQNLIGISI-NH2 [PRE 4, Ac-KDAQNLIGISI-NH2] | 2.69 |
| Ac-AKGIQEVKGGDAQNLIGISI-NH2 [PRE 3] | 0 |
| Ac-AKGIQEVKGGKDAQNLIGISI-NH2 [PRE 5] | 0 |

same assay, conditions: PRE 100 μM; purified PKC-βII

| Substance | calculated binding capacity (100-% n) after subtraction of the DMSO apparent binding capacity |
| --- | --- |
| Ac-isigilgnadk-NH2 [PRE 9] | 0.3 |
| Ac-ISIGILQNADK-NH2 [PRE 7] | 11.07 |
| Ac-RDAQNLIGISI-NH2 [PRE 11] | 11.04 |

same assay, conditions: PRE 100 μM; purified PKC-βII; read-out: calculated binding capacity (100-% n) after subtraction of the DMSO apparent binding capacity

| Substance | inhibition at 100 µM [%] |
| --- | --- |
| Ac-KDAQNLIGISI-NH2 [PRE 4, Ac-KDAQNLIGISI-NH2] | 13.5 |
| Ac-AKGIQEVKGGDAQNLIGISI-NH2 [PRE 3] | 0 |
| Ac-AKGIQEVKGGKDAQNLIGISI-NH2 [PRE 5] | 0 |

same assay, conditions: PRE 200 μM; purified PKC-βII

| Substance | calculated binding capacity (100-% n) after subtraction of the DMSO apparent binding capacity |
| --- | --- |
| Ac-ISIGILQNADK-NH2 [PRE 7] | 2.59 |
| Ac-RDAQNLIGISI-NH2 [PRE 11] | 6.40 |

same assay, conditions: PRE 200 μM; purified PKC-βII; read-out: calculated binding capacity (100-% n) after subtraction of the DMSO apparent binding capacity

| Substance | inhibition at 200 µM [%] |
| --- | --- |
| Ac-KDAQNLIGISI-NH2 [PRE 4, Ac-KDAQNLIGISI-NH2] | 1.18 |
| Ac-AKGIQEVKGGDAQNLIGISI-NH2 [PRE 3] | 3.72 |
| Ac-AKGIQEVKGGKDAQNLIGISI-NH2 [PRE 5] | 0 |

same assay, conditions: Purified isoform; Table 20

| Substance | Affinity for PKC isoform βII |
| --- | --- |
| Ac-KDAQNLIGISI-NH2 [PRE 4, Ac-KDAQNLIGISI-NH2] | L |
| Ac-ISIGILQNADK-NH2 [PRE 7] | — |
| Ac-KDANQLIGISI-NH2 [PRE 6] | — |
| RRKKGGKDFVVKR [PRE 1] | — |
| Ac-AKGIQEVKGGDAQNLIGISI-NH2 [PRE 3] | — |
| Ac-AKGIQEVKGGKDAQNLIGISI-NH2 [PRE 5] | — |

The remaining lines, values ahead:

| Affinity for PKC isoform βII | Substance |
| --- | --- |
| H | Ac-isigilgnadk-NH2 [PRE 9] |
| L | Ac-ISIGILNQADK-NH2 [PRE 10] |
| — | ILEDKGGDAQNLIGISI [PRE 8] |
| — | Ac-RDAQNLIGISI-NH2 [PRE 11] |
| — | Ac-RDAQNLI-NH2 [PRE 13] |
| — | Ac-KDAQNLI-NH2 [PRE 12] |

same assay, conditions: purified isoform, Tables 14-19

| Substance | targeting of PKC-βII |
| --- | --- |
| Ac-isigilgnadk-NH2 [PRE 9] | targeted most strongly |

target: PKC-δ (Homo sapiens, UniProt Q05655); experiment: Competitive binding assay using cell extracts (Western blot); parameters: cytoplasmic extracts from different cell lines expressing appropriate PKC isoforms; endogenous in cells; host or cells: H661, MDAMB231, LS180, T24 (human, from ATCC); key to Affinity for PKC isoform δ: —: no detectable affinity; Low to very low affinity at 10X or 20X or both PRE concentrations in at least one cell line in the cell extract assay; Low affinity in purified isoform assay.; Moderate affinity at 10X or 20X or both PRE concentrations in at least one cell line in the cell extract assay.; High affinity at 10X or 20X or both PRE concentrations in at least one cell line in the cell extract assay; High affinity in purified isoform assay; conditions: Cell extract; PRE at 10X, 20X antibody concentration; Table 20
Sequence (Q05655 whole entry, canonical isoform): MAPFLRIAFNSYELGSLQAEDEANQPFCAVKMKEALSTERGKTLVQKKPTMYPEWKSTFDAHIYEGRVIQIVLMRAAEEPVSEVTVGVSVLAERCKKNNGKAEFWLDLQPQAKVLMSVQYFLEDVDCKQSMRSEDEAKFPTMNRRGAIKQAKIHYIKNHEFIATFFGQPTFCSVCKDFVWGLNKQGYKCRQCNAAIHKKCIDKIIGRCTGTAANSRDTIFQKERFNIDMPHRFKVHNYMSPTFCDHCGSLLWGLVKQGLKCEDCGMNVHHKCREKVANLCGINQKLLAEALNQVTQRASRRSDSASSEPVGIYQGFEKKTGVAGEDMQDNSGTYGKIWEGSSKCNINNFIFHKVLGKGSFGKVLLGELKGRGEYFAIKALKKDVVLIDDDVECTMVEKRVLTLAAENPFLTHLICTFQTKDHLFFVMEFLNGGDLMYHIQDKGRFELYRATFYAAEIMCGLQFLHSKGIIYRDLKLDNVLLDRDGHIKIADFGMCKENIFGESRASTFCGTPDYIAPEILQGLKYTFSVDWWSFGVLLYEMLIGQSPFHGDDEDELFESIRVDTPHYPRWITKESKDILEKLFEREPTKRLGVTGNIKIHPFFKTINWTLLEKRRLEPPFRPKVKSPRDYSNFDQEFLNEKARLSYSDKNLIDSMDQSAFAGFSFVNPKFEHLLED
Experimental: Binding efficiency and specificity of the peptides PRE 2, 3, 4, 5, 6, 7, 8, 9, 10, 11, 12 and 13 (see Table 3) was also tested using cytoplasmic extracts from different cell lines expressing appropriate PKC isoforms as described for Example 1. Briefly, the protein cytoplasmic extracts were separated by electrophoresis and transferred onto nitrocellulose membranes by standard Western blotting procedures. The bands on the Western blots were detected with matching primary antibodies and alkaline phosphatase conjugated secondary antibody. The bands were then scanned and the relative density measurements obtained.
This procedure to assess the binding characteristics of the PREs is based on competition binding of the PRE with the primary anti-isoform PKC specific antibodies. The lower the measured band density, the greater the binding of the PRE to the PKC isoform. The PREs were added at 10 and 20 times (10×, 20×) the primary antibody concentration, according to classical competition between antigenic peptide and primary antibody. The following cell lines (obtained from the ATCC) were used: H661—NCI human lung carcinoma NSCLC; MDAMB231—human highly invasive breast cancer cell line from pleural effusion; LS180—human colon adenocarcinoma; LnCAP—human prostate adenocarcinoma; CCD16Lu—human lung fibroblasts; Du145—human prostate carcinoma brain metastasis, and T24—human bladder carcinoma.
In these cases, the 20× band density figures relative to control and 10× values were reliable.

| Substance | Affinity for PKC isoform δ |
| --- | --- |
| Ac-KDAQNLIGISI-NH2 [PRE 4, Ac-KDAQNLIGISI-NH2] | — |
| Ac-ISIGILQNADK-NH2 [PRE 7] | L |
| Ac-KDANQLIGISI-NH2 [PRE 6] | M/H |
| RRKKGGKDFVVKR [PRE 1] | — |
| Ac-AKGIQEVKGGDAQNLIGISI-NH2 [PRE 3] | H |
| Ac-AKGIQEVKGGKDAQNLIGISI-NH2 [PRE 5] | — |

Next, values leading:

| Affinity for PKC isoform δ | Substance |
| --- | --- |
| H | Ac-isigilgnadk-NH2 [PRE 9] |
| H | Ac-ISIGILNQADK-NH2 [PRE 10] |
| L | ILEDKGGDAQNLIGISI [PRE 8] |
| — | Ac-RDAQNLIGISI-NH2 [PRE 11] |
| — | Ac-RDAQNLI-NH2 [PRE 13] |
| — | Ac-KDAQNLI-NH2 [PRE 12] |

same assay, conditions: cell extracts

| Substance | affinity for PKC-δ |
| --- | --- |
| Ac-KDAQNLIGISI-NH2 [PRE 4, Ac-KDAQNLIGISI-NH2] | none for PKC-6 |
